{
  "source": "the supplement of paper PMC10126150",
  "note": "± gives the standard deviation of the averaged measurements.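 Also: ATP exposure 15 min at 22 °C before imaging.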",
  "data": [
    {"tested_on": "ATP", "test": "switch fluorescence ratio, 500 uM ATP over buffer (Cy3 cluster intensity, sum of 5 cycles each) (fold (ratio)); higher = stronger signal-on switching upon ATP binding; sequences stand for … in TCGTCGGCAGCGTCAGATGTGTATAAGAGACAGTTTTTTTTTTTTTTTTTTTTTTTTT…TC", "conditions": "aptamer strand: ATP DNA aptamer (quencher-CACCTGGGGGAGTATTGCGGAGGAAGG + anchor), 100 nM annealed; ATP concentration: 500 uM", "outline": "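The fluorescence ratio divides summed target-cycle Cy3 intensity by summed buffer-cycle Cy3 intensity for each cluster and is averaged per switch-domain sequence. Cy3-labelled switching-strand clusters on a modified Illumina MiSeq flow-cell were annealed to 100 nM quencher-labelled ATP aptamer, then imaged in selection buffer and again after 15 min with 500 uM ATP at 22 °C. Five such cycles were run, with NaOH stripping and re-annealing between them, and clusters outside 100-1000 RFU were excluded.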", "values": [
      {"sequence": "AGTCATAAAG", "switch fluorescence ratio": "0.984 ± 0.014"},
      {"sequence": "GTGGGGTCCG", "switch fluorescence ratio": "0.99 ± 0.046"},
      {"sequence": "GACCCGGGTT", "switch fluorescence ratio": "1.11 ± 0.15"},
      {"sequence": "CGCTTAGCCA", "switch fluorescence ratio": "1.01 ± 0.021"},
      {"sequence": "AATTATGGGA", "switch fluorescence ratio": "0.986 ± 0.051"},
      {"sequence": "ACAGCCACGG", "switch fluorescence ratio": "1.18 ± 0.038"},
      {"sequence": "CGATTCACTT", "switch fluorescence ratio": "1.02 ± 0.021"},
      {"sequence": "GAGCCAGATT", "switch fluorescence ratio": "1.0095 ± 0.00059"},
      {"sequence": "ACGATTTTTA", "switch fluorescence ratio": "1 ± 0.013"},
      {"sequence": "ACCATGACGG", "switch fluorescence ratio": "1.044 ± 0.0092"},
      {"sequence": "AAGGGGGCGA", "switch fluorescence ratio": "0.982 ± 0.019"},
      {"sequence": "ATAAATGTCA", "switch fluorescence ratio": "1.01 ± 0.026"},
      {"sequence": "CGTAGGGTCA", "switch fluorescence ratio": "0.9871 ± 0.0082"},
      {"sequence": "CAACTTCCCC", "switch fluorescence ratio": "1.22 ± 0.1"},
      {"sequence": "ACGAGCCTAG", "switch fluorescence ratio": "1.33 ± 0.058"},
      {"sequence": "GGGTGCTGTG", "switch fluorescence ratio": "1 ± 0.034"},
      {"sequence": "CCTGTAAAGA", "switch fluorescence ratio": "1.02 ± 0.019"},
      {"sequence": "AGACATAGAG", "switch fluorescence ratio": "1 ± 0.011"},
      {"sequence": "AATAATGGTT", "switch fluorescence ratio": "1.01 ± 0.013"},
      {"sequence": "TTCAGCAGAG", "switch fluorescence ratio": "1.41 ± 0.59"},
      {"sequence": "TTAGTAATTC", "switch fluorescence ratio": "1.12 ± 0.15"},
      {"sequence": "GAAAAGGGCG", "switch fluorescence ratio": "1.01 ± 0.022"},
      {"sequence": "ATAGACTTAT", "switch fluorescence ratio": "0.9765 ± 0.0093"},
      {"sequence": "CACGTGTGTG", "switch fluorescence ratio": "0.961 ± 0.029"},
      {"sequence": "AGCACATGTC", "switch fluorescence ratio": "1.07 ± 0.027"},
      {"sequence": "TTCATTTACA", "switch fluorescence ratio": "1.04 ± 0.033"},
      {"sequence": "ATAGTCAGGG", "switch fluorescence ratio": "0.988 ± 0.036"},
      {"sequence": "GGTTTCCGT", "switch fluorescence ratio": "0.987 ± 0.038"},
      {"sequence": "GGCGCTTGTT", "switch fluorescence ratio": "0.975 ± 0.034"},
      {"sequence": "GGGGCCCATG", "switch fluorescence ratio": "0.992 ± 0.021"},
      {"sequence": "TGGGTCTGAT", "switch fluorescence ratio": "0.9865 ± 0.0031"},
      {"sequence": "TTGTTTATTC", "switch fluorescence ratio": "1.02 ± 0.071"},
      {"sequence": "TCGAGGATGT", "switch fluorescence ratio": "0.976 ± 0.019"},
      {"sequence": "GGGTTGGTCG", "switch fluorescence ratio": "0.955 ± 0.016"},
      {"sequence": "GGGGGGTCAA", "switch fluorescence ratio": "0.967 ± 0.033"},
      {"sequence": "TTGGTATGAC", "switch fluorescence ratio": "0.988 ± 0.076"},
      {"sequence": "ACCCTTCCAA", "switch fluorescence ratio": "1.72 ± 0.072"},
      {"sequence": "TGCGGTCGCG", "switch fluorescence ratio": "0.959 ± 0.012"},
      {"sequence": "ATTCGGAATA", "switch fluorescence ratio": "1.06 ± 0.016"},
      {"sequence": "AAACTTTCTA", "switch fluorescence ratio": "1.05 ± 0.05"},
      {"sequence": "TTTAGATAAT", "switch fluorescence ratio": "1 ± 0.014"},
      {"sequence": "GTTGTTTCAG", "switch fluorescence ratio": "0.969 ± 0.022"},
      {"sequence": "ATTTCAGGGG", "switch fluorescence ratio": "1.09 ± 0.061"},
      {"sequence": "TTAGACGTTC", "switch fluorescence ratio": "0.99809 ± 0.00032"},
      {"sequence": "AAAGGCCCGT", "switch fluorescence ratio": "1 ± 0.0077"},
      {"sequence": "CGTTTGTGCA", "switch fluorescence ratio": "0.98971 ± 6.6e-05"},
      {"sequence": "TGATGGGGTC", "switch fluorescence ratio": "0.991 ± 0.013"},
      {"sequence": "TAATTTTTTG", "switch fluorescence ratio": "0.997 ± 0.021"},
      {"sequence": "ATCCGCCGCT", "switch fluorescence ratio": "1.72 ± 0.089"},
      {"sequence": "GTGGTTCGGG", "switch fluorescence ratio": "0.975 ± 0.029"},
      {"sequence": "GGGTTGCGTA", "switch fluorescence ratio": "1.006 ± 0.0027"},
      {"sequence": "TTATTTTTT", "switch fluorescence ratio": "1.02 ± 0.018"},
      {"sequence": "ACGATCAAGG", "switch fluorescence ratio": "1.13 ± 0.024"},
      {"sequence": "GAAGTTGTTG", "switch fluorescence ratio": "0.9642 ± 0.0036"},
      {"sequence": "CTTGTAAAAT", "switch fluorescence ratio": "0.993 ± 0.014"},
      {"sequence": "TGGTAGGTA", "switch fluorescence ratio": "0.987 ± 0.013"},
      {"sequence": "ACTGCGAATA", "switch fluorescence ratio": "1.41 ± 0.021"},
      {"sequence": "TACAGGTCGG", "switch fluorescence ratio": "1 ± 0.033"},
      {"sequence": "CTCTGAGGGC", "switch fluorescence ratio": "1.07 ± 0.057"},
      {"sequence": "TATAATTTCG", "switch fluorescence ratio": "1.003 ± 0.0024"},
      {"sequence": "AGAGAGGGCG", "switch fluorescence ratio": "0.888 ± 0.14"},
      {"sequence": "CGTCTAAGTC", "switch fluorescence ratio": "1.01 ± 0.046"},
      {"sequence": "CCCGGGAAAT", "switch fluorescence ratio": "1.04 ± 0.059"},
      {"sequence": "TTTTTCGCTC", "switch fluorescence ratio": "1.01 ± 0.042"},
      {"sequence": "GTGATAAAGG", "switch fluorescence ratio": "1.01 ± 0.03"},
      {"sequence": "GGGGGAATA", "switch fluorescence ratio": "0.993 ± 0.051"},
      {"sequence": "TGTTGTTGAA", "switch fluorescence ratio": "1.01 ± 0.042"},
      {"sequence": "TTTTCTTGTT", "switch fluorescence ratio": "0.9949 ± 0.0062"},
      {"sequence": "ACCAATTTGC", "switch fluorescence ratio": "1.05 ± 0.043"},
      {"sequence": "TAACGGGTCG", "switch fluorescence ratio": "0.937 ± 0.06"},
      {"sequence": "ATTGCATTAA", "switch fluorescence ratio": "0.985 ± 0.033"},
      {"sequence": "GAGCTTCTAG", "switch fluorescence ratio": "1.03 ± 0.015"},
      {"sequence": "AGTGGTATAG", "switch fluorescence ratio": "1.01 ± 0.034"},
      {"sequence": "ATGGTGCGGA", "switch fluorescence ratio": "0.956 ± 0.06"},
      {"sequence": "GGGTACTATT", "switch fluorescence ratio": "0.982 ± 0.031"},
      {"sequence": "ATTTTTTGGT", "switch fluorescence ratio": "0.9981 ± 0.006"},
      {"sequence": "TGGGTCCATA", "switch fluorescence ratio": "0.95611 ± 0.00081"},
      {"sequence": "AGGCTATTTC", "switch fluorescence ratio": "0.994 ± 0.019"},
      {"sequence": "TCGCATTTTT", "switch fluorescence ratio": "1.11 ± 0.13"},
      {"sequence": "TTAATAAAAA", "switch fluorescence ratio": "0.985 ± 0.028"},
      {"sequence": "TTTTGTGACA", "switch fluorescence ratio": "1 ± 0.027"},
      {"sequence": "ACGCGGAGAC", "switch fluorescence ratio": "1.24 ± 0.024"},
      {"sequence": "TGGGGGACAG", "switch fluorescence ratio": "1 ± 0.029"},
      {"sequence": "TACCACCGGT", "switch fluorescence ratio": "1.02 ± 0.047"},
      {"sequence": "ACCCGGGCAG", "switch fluorescence ratio": "1.049 ± 0.0047"},
      {"sequence": "TTTTGGAATG", "switch fluorescence ratio": "1.011 ± 0.0027"},
      {"sequence": "AGTGAAGGGG", "switch fluorescence ratio": "1.1 ± 0.15"},
      {"sequence": "CCTTGTGTTG", "switch fluorescence ratio": "1.01 ± 0.017"},
      {"sequence": "CTAGGGAAAG", "switch fluorescence ratio": "0.989 ± 0.057"},
      {"sequence": "TTATTGGAAA", "switch fluorescence ratio": "1.012 ± 0.0059"},
      {"sequence": "TTACAAGTTT", "switch fluorescence ratio": "1.14 ± 0.19"},
      {"sequence": "ATCTGCGGGA", "switch fluorescence ratio": "1.05 ± 0.042"},
      {"sequence": "TAAAAAAGAT", "switch fluorescence ratio": "0.978 ± 0.017"},
      {"sequence": "AAAGGTGCAC", "switch fluorescence ratio": "0.968 ± 0.11"},
      {"sequence": "AGATGTTAGC", "switch fluorescence ratio": "0.983 ± 0.047"},
      {"sequence": "AACGCTGGGT", "switch fluorescence ratio": "1.0379 ± 0.00084"},
      {"sequence": "TAGTTGGTTG", "switch fluorescence ratio": "0.974 ± 0.027"},
      {"sequence": "CTCCAATAGT", "switch fluorescence ratio": "1.79 ± 0.044"},
      {"sequence": "AAGTTCGAGA", "switch fluorescence ratio": "1.002 ± 0.0016"},
      {"sequence": "AAGGGCGGGA", "switch fluorescence ratio": "1.02 ± 0.086"}
    ]}
  ]
}
